Experimental data as given in patent publication US12545899B2, “Luciferase enzymes for use with thermostable luciferins in bioluminescent assays” (Promega Corporation, priority 2018, dated 2026).
Positions count from the first letter of the chain named. Names and notes keep the numbering of the source.

What was measured:
[1] = Purified enzyme activity of ATG-2890 with CS0333 (FIGS. 9C-9D); type: biochemical
Protocol: (§1) FIG. 9A includes a representative graph assessing the activities of luciferase enzyme variants ATG-2877, ATG-2624, and ATG-2890 in the presence of 5,5-disubstituted luciferin analog substrate. Luciferin analog compounds were diluted from 50 mM to 20 mM in reaction buffer (either Bright-Glo™ or Detection Reagent buffer). […] Reagent compositions included 50 μl Reaction Buffer+ATP, which was combined with 50 μl diluted enzyme. Plates were incubated at room temp for 30 minutes to minimize background, and 5 μl of luciferin analog substrate was added to a final concentration of 1 mM. Plates were read before and after compound addition at 3 mins and 20 mins.

[2] = Purified enzyme activity of ATG-2890 with CS0280 (FIGS. 9C-9D); type: biochemical
Protocol: as §1

[3] = Inhibition of luciferase enzyme variants by dehydro-F-luciferin; type: biochemical; settings: for resistance to inhibition by dehydro F-luciferin: 1 μM F-luciferin, 1 mM ATP (FIG. 26); for inhibition by dehydro-F-luciferin relative to Ppe variant (SEQ ID NO: 1): Detection reagent buffer or Bright-Glo buffer (FIGS. 20, 21)
Protocol: Reagent compositions include 0.022 μM-366.97 μM Dehydro F-luciferin titration, 1 mM ATP, 1 μM F-luciferin, and 0.005 mg/ml enzyme. […] Both amino acid substitutions L305F and S306P conferred improved resistance to the inhibitor individually and in combination.

[4] = Effect of V300G, L305F, S306P on activity with CS0333 (FIG. 13); type: biochemical; settings: 1 mM ATP; 100 nM to 1 mM substrate; Bright-Glo buffer
Protocol: FIG. 13 includes a representative graph of the effects of amino acid substitutions V300G, L305F, and S306P on enzyme activity with the CS0333 analog. Reagent compositions included […]+1 mM ATP+100 nM to 1 mM substrate in Bright-Glo™ buffer.

[5] = Brightness of additional luciferase enzyme variants with CS0280; type: biochemical; settings: Table 7A, 1 mM CS0280
Procedure, shortened: (§2)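 Each variant at 0.005 mg/ml combined with 1 mM ATP plus 1 mM substrate in Bright-Glo or Detection Reagent buffer; luminescence recorded as relative brightness.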

[6] = Kinetic analysis of ATG-3707, ATG-4117 with CS0280; type: biochemical
Protocol: (§3) Kinetic tests of these luciferase enzyme variants were also conducted. […] Reagent compositions included 0.005 mg/ml luciferase enzyme variant+1 mM ATP, and 0.1 fM to 1 mM substrate in Bright-Glo™ (BG) or Detection Reagent (DR) buffers. The composition was incubated for 3 mins and read on GloMax® Multi+platform.
(§4) Table 8 below includes representative results of kinetic analysis of the thermostable luciferase variants of Ppe (SEQ ID NO: 1), ATG-3707, and ATG-4117. The Ppe variant (SEQ ID NO: 1) was tested with D/L-luciferin, and ATG-3707, and ATG-4117 were tested with CS0280 and CS0333.

[7] = Brightness of additional luciferase enzyme variants with CS0333; type: biochemical; settings: Table 7A, 1 mM CS0333
Procedure, shortened: as §2

[8] = Kinetic analysis of Ppe variant, ATG-3707, ATG-4117 with D/L-luciferin; type: biochemical
Protocol: as §3, §4

[9] = Differential scanning fluorimetry (DSF) analysis; type: physicochemical; parameters: key to DSF Tm: melting temperature in °C (heated 30-95 °C at 1 °C/min); settings: Table 7A
Procedure, shortened: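 Enzymes mixed with Sypro Orange at 5× final, heated 30–95° C at 1° C per minute with fluorescence read every 60 s. Storage buffer 50 mM HEPES pH 7.5, 100 mM NaCl, 2 mM EDTA, or for luciferase variants 20 mM HEPES pH 7.5, 200 mM NaCl, 1 mM EDTA; per-minute fluorescence change plotted against temperature.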

[10] = Kinetic analysis of ATG-3707, ATG-4117 with CS0333; type: biochemical
Protocol: as §3, §4

[11] = E. coli lysate screen of epPCR/DNA shuffling variants with CS0333; type: biochemical; settings: Detection Reagent, 1 mM ATP, 500 μM substrate, 3 mins
Protocol: (§5) These experiments included lysing E. coli cells expressing each luciferase enzyme variant in Detection Reagent containing 1 mM ATP+500 μM substrate. The cell lysate was incubated at room temperature for 3 mins and luminescence was read. The raw luminescence reading was normalized to the on-plate luminescence of ATG-2889, which was used as a control in this screen.

[12] = E. coli lysate screen of epPCR/DNA shuffling variants with CS0280; type: biochemical; settings: Detection Reagent, 1 mM ATP, 500 μM substrate, 3 mins
Protocol: as §5

B1: ATG-2890: SEQ ID NO: 13; I240L+H244W+Y254S+T344A+I396K (protein)
chain: MADKNILYGPEPFYPLEDGTAGEQMFDALSRYAAIPGCIALTNAHTKENVLYEEFLKLSCRLAESFKKYGLKQNDTIAVCSENSLQFFLPVIASLYLGIIVAPVNDKYIERELIHSLGIVKPRIVFCSKNTFQKVLNVKSKLKSIETIIILDLNEDLGGYQCLNNFISQNSDSNLDVKKFKPYSFNRDDQVASIMFSSGTTGLPKGVMLTHKNIVARFSIAKDPTFGNAINPTSAILTVLPFHWGFGMMTTLGSFTCGFRVVLMHTFEEKLFLQSLQDYKVESTLLVPTLMAFLAKSALVEKYDLSHLKEIASGGAPLSKEIGEMVKKRFKLNFVRQGYGLTEATSAVLITPKGDAKPGSTGKIVPLHAVKVVDPTTGKILGPNEPGELYFKGPMKMKGYYNNEEATKAIIDNDGWLRSGDIAYYDNDGHFYIVDRLKSLIKYKGYQVAPAEIEGILLQHPYIVDAGVTGIPDEAAGELPAAGVVVQTGKYLNEQIVQDYVASQVSTAKWLRGGVKFLDEIPKGSTGKIDRKVLRQMLEKHTNGHHHHHHHH
increase in activity with CS0333 compared to Ppe variant (SEQ ID NO: 1) ([1]; Bright-Glo Buffer): 1,470 fold | increase in activity with CS0333 compared to Ppe variant (SEQ ID NO: 1) ([1]; Detection Buffer): 3,050 fold | increase in activity with CS0280 compared to Ppe variant (SEQ ID NO: 1) ([2]; Bright-Glo Buffer): 120 fold | increase in activity with CS0280 compared to Ppe variant (SEQ ID NO: 1) ([2]; Detection Buffer): 6 fold

B2: ATG-3553: SEQ ID NO: 18; H244W+T344A+I396K+L305P+S306P (protein)
chain: B1 chain with L240I, S254Y, L305F, S306P
resistance to inhibition by dehydro F-luciferin [3]: conferred resistance to inhibition by dehydro F-luciferin | activity with CS0333 relative to Ppe variant (SEQ ID NO: 1) [4]: improved activity

B3: C7573H3: SEQ ID NO: 70; H244W+T344A+I396K+S193A+N228D+L305F+S306P+I109V+A316W (protein)
chain: B1 chain with L240I, S254Y, L305F, A344T, K396I
Fold-improvement over ATG3707, CS0280 BG ([5]; Bright-Glo buffer): 6.04 | Fold-improvement over ATG3707, CS0280 DR ([5]; Detection Reagent buffer): 7.48 | Km ([6]; BrightGlo): 13 µM | Vmax (RLU) ([6]; BrightGlo): 7,188,109 RLU | Km ([6]; Detection Reagent): 419 µM | Vmax (RLU) ([6]; Detection Reagent): 7,879,793 RLU | Fold-improvement over ATG3707, CS0333 BG ([7]; Bright-Glo buffer): 4.35 | Fold-improvement over ATG3707, CS0333 DR ([7]; Detection Reagent buffer): 3.36 | Km ([8]; BrightGlo): 70.2 nM | Vmax (RLU) ([8]; BrightGlo): 719,605 RLU | Km ([8]; Detection Reagent): 2650 nM | Vmax (RLU) ([8]; Detection Reagent): 817,287 RLU | DSF Tm [9]: 61 | Km ([10]; BrightGlo): 12.4 µM | Vmax (RLU) ([10]; BrightGlo): 1,601,921 RLU | Km ([10]; Detection Reagent): 758 µM | Vmax (RLU) ([10]; Detection Reagent): 124,964 RLU

B4: C4589D5: SEQ ID NO: 59; H244W+T344A+I396K+A40A+K107Q+S193T+A316S (protein)
chain: B1 chain with K107Q, S193T, L240I, S254Y, A316S
Normalized luminescence (Mutant RLU/ATG2889 RLU) with CS0333 [11]: 3.79 | Normalized luminescence (Mutant RLU/ATG2889 RLU) with CS0280 [12]: 12.42

B5: ATG-3550: SEQ ID NO: 15; H244W+T344A+I396K+V300G+L305F (protein)
chain: B1 chain with L240I, S254Y, V300G, L305F
resistance to inhibition by dehydro F-luciferin [3]: conferred resistance to inhibition by dehydro F-luciferin | activity with CS0333 relative to Ppe variant (SEQ ID NO: 1) [4]: highest activity

B6: ATG-3552: SEQ ID NO: 17; H244W+T344A+I396K+V300G+L305P+S306P (protein)
chain: B1 chain with L240I, S254Y, V300G, L305F, S306P
resistance to inhibition by dehydro F-luciferin [3]: conferred resistance to inhibition by dehydro F-luciferin | activity with CS0333 relative to Ppe variant (SEQ ID NO: 1) [4]: improved activity

B7: ATG-2625: SEQ ID NO: 4; N74N+H244R+V300G+I396K (protein)
chain: B1 chain with L240I, W244R, S254Y, V300G, A344T
inhibition by dehydro-F-luciferin relative to Ppe variant (SEQ ID NO: 1) [3]: inhibited by dehydro-F-luciferin, but less so

B8: C4604A11: SEQ ID NO: 62; H244W+T344A+I396K+I109M+A316S (protein)
chain: B1 chain with I109M, L240I, S254Y, A316S
Normalized luminescence (Mutant RLU/ATG2889 RLU) with CS0333 [11]: 2.41 | Normalized luminescence (Mutant RLU/ATG2889 RLU) with CS0280 [12]: 12.16

B9: C4580B10: SEQ ID NO: 53; H244W+T344A+I396K+K107Q+S193T+V262A (protein)
chain: B1 chain with K107Q, S193T, L240I, S254Y, V262A
Normalized luminescence (Mutant RLU/ATG2889 RLU) with CS0333 [11]: 4.64 | Normalized luminescence (Mutant RLU/ATG2889 RLU) with CS0280 [12]: 9.35

B10: ATG-3551: SEQ ID NO: 16; H244W+T344A+I396K+V300G+S306P (protein)
chain: B1 chain with L240I, S254Y, V300G, S306P
resistance to inhibition by dehydro F-luciferin [3]: conferred resistance to inhibition by dehydro F-luciferin | activity with CS0333 relative to Ppe variant (SEQ ID NO: 1) [4]: improved activity

B11: ATG-2624: SEQ ID NO: 3; I240L+Y254S+T344A+I396K (protein)
chain: B1 chain with W244H
inhibition by dehydro-F-luciferin relative to Ppe variant (SEQ ID NO: 1) [3]: inhibited by dehydro-F-luciferin, but less so

B12: C4610C10: SEQ ID NO: 65; H244W+T344A+1396K+S306P (protein)
chain: B1 chain with L240I, S254Y, S306P
Normalized luminescence (Mutant RLU/ATG2889 RLU) with CS0333 [11]: 4.32 | Normalized luminescence (Mutant RLU/ATG2889 RLU) with CS0280 [12]: 3.60

B13: C4588H8: SEQ ID NO: 58; H244W+T344A+I396K+K107Q+L305F (protein)
chain: B1 chain with K107Q, L240I, S254Y, L305F
Normalized luminescence (Mutant RLU/ATG2889 RLU) with CS0333 [11]: 3.90 | Normalized luminescence (Mutant RLU/ATG2889 RLU) with CS0280 [12]: 6.56

B14: C4584D9: SEQ ID NO: 56; H244W+T344A+I396K+I109M+S193L+L294H (protein)
chain: B1 chain with I109M, S193L, L240I, S254Y, L294H
Normalized luminescence (Mutant RLU/ATG2889 RLU) with CS0333 [11]: 2.67 | Normalized luminescence (Mutant RLU/ATG2889 RLU) with CS0280 [12]: 12.41

B15: ATG-3549: SEQ ID NO: 14; H244W+T344A+I396K+V300G (protein)
chain: B1 chain with L240I, S254Y, V300G
activity with CS0333 relative to Ppe variant (SEQ ID NO: 1) [4]: improved activity
